The supplement of paper PMC10065799, “High-throughput profiling of sequence recognition by tyrosine kinases and SH2 domains using bacterial peptide display” (eLife, 2023)

target: c-Src SH2; assay: SH2 binding enrichment of the phosphorylated peptide, bacterial display (enrichment ratio); higher = better substrate or ligand; peptides without Tyr show the background
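Further: peptide library displayed on the E. coli surface as eCPX fusions, selected cells deep-sequenced, score is each peptide's frequency after selection divided by its frequency in the input.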

Sequence | SH2 binding enrichment
AFGTVYKGLWI [EGFR_Y727] | 0.628
EYGRRYGFSRQ [CCDC93_Y209] | 0.474
RLASVYTKRCS [CPT2_Y508_P504L] | 0.611
TLQVMYGCDVG [HLA-B_Y123_S121V] | 0.515
PVEAAYQKVVA [HBB_Y131_Q128E] | 0.964
LYSINYLHFGE [KDM4C_Y201] | 1.31
SSVKLYRVYCD [FGB_Y266_P265L] | 0.606
VTVLDYDKTGK [SYT1_Y365_I368T] | 0.408
HFGCVYHGTLL [MET_Y1093] | 0.524
REGAKYVSHGT [ASS1_Y113_A118T] | 0.566
SLLVVYPWTQR [HBB_Y36_R31S] | 1.14
WQQQSYLDSEI [CTNNB1_Y30_G34E] | 0.49
PVKSEYSSIKL [NPC2_Y119_P120S] | 1.95
QKKPCYEIRWK [PDGFRB_Y562_R561C] | 1.73
VEFAKYGSLQG [RET_Y809_R813Q_YF] | 0.382
SIKDKHVTALY [KCNH2_Y611_Y611H] | 0.497
KNNDGYIDYAE [MCFD2_Y135] | 1.01

Sequence | SH2 binding enrichment
EEGENYQKGEQ [CHGB_Y173_R178Q] | 0.472
EDSEYYRAFEE [CASQ2_Y179_K180R] | 0.411
SYDLDYDSVQP [MYC_Y16_N11S] | 1.19
SNKLFYQLEQE [PDPR_Y110_YF] | 0.651
GCAGKYIAMVM [CYP19A1_Y441] | 0.603
FEEDPYLVVNP [MCM6_Y810_YF] | 0.507
DLAHKYHGGGG [HBB_Y146_A141D] | 0.42
AIIGIYILRDN [CDH23_Y2949_D2954N] | 0.987
NTDETYCIDNE [TUBB2B_Y200] | 0.544
LFSINYLHFGE [KDM4C_Y201_YF] | 1.27
QGIPRYHSQSP [FOXF1_Y331] | 0.537
RDLEQYVNNVN [PCDH19_Y1097] | 0.59
KEEEDYKEENN [BMS1_Y651] | 0.499
SISLKYEGRVF [ABL1_Y167_R166K_YF] | 0.489
TIQMMYGCDVG [HLA-A_Y123_I121M] | 0.414
KIDAKYKKKIE [WDR19_Y1230] | 0.367

target: SHP2-C SH2; assay: as above

Sequence | SH2 binding enrichment
AFGTVYKGLWI [EGFR_Y727] | 1.3
EYGRRYGFSRQ [CCDC93_Y209] | 0.572
RLASVYTKRCS [CPT2_Y508_P504L] | 0.864
TLQVMYGCDVG [HLA-B_Y123_S121V] | 0.883
PVEAAYQKVVA [HBB_Y131_Q128E] | 0.713
LYSINYLHFGE [KDM4C_Y201] | 2.6
SSVKLYRVYCD [FGB_Y266_P265L] | 0.818
VTVLDYDKTGK [SYT1_Y365_I368T] | 0.511
HFGCVYHGTLL [MET_Y1093] | 0.754
REGAKYVSHGT [ASS1_Y113_A118T] | 0.706
SLLVVYPWTQR [HBB_Y36_R31S] | 1.5
WQQQSYLDSEI [CTNNB1_Y30_G34E] | 0.707
PVKSEYSSIKL [NPC2_Y119_P120S] | 4.74
QKKPCYEIRWK [PDGFRB_Y562_R561C] | 2.56
VEFAKYGSLQG [RET_Y809_R813Q_YF] | 0.803
SIKDKHVTALY [KCNH2_Y611_Y611H] | 0.572
KNNDGYIDYAE [MCFD2_Y135] | 0.695

Sequence | SH2 binding enrichment
EEGENYQKGEQ [CHGB_Y173_R178Q] | 0.473
EDSEYYRAFEE [CASQ2_Y179_K180R] | 0.559
SYDLDYDSVQP [MYC_Y16_N11S] | 0.633
SNKLFYQLEQE [PDPR_Y110_YF] | 0.649
GCAGKYIAMVM [CYP19A1_Y441] | 0.56
FEEDPYLVVNP [MCM6_Y810_YF] | 0.557
DLAHKYHGGGG [HBB_Y146_A141D] | 0.54
AIIGIYILRDN [CDH23_Y2949_D2954N] | 1.42
NTDETYCIDNE [TUBB2B_Y200] | 0.781
LFSINYLHFGE [KDM4C_Y201_YF] | 2.78
QGIPRYHSQSP [FOXF1_Y331] | 0.562
RDLEQYVNNVN [PCDH19_Y1097] | 0.573
KEEEDYKEENN [BMS1_Y651] | 0.716
SISLKYEGRVF [ABL1_Y167_R166K_YF] | 0.987
TIQMMYGCDVG [HLA-A_Y123_I121M] | 0.575
KIDAKYKKKIE [WDR19_Y1230] | 0.602
